Data: the supplement of paper PMC9170038

Columns and labels:
MS2 coat protein [1] = assay: apparent KD of MS2 coat protein, switch OFF state (with FMN for OFF switches, without FMN for ON switches); designed switch direction (-1 OFF switch, 1 ON switch): -1; higher = weaker reporter binding; details: FMN input: 0 or 200 uM; Eterna round: R93 (includes R88 designs)
How it was run: (§1)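 The buffer was 100 mM Tris-HCl pH 7.5 with 80 mM KCl and 4 mM MgCl2, used without or with constant ligand. In it, RNA switches transcribed on-chip from Illumina sequencing clusters were titrated with SNAP-549-labelled MS2 coat protein in twofold steps from 0.7 or 1.5 nM to 3 µM. Apparent KD for each design is the median of its normalised cluster binding-curve fits.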

MS2 coat protein [2] = assay: apparent KD of MS2 coat protein, switch ON state; designed switch direction (-1 OFF switch, 1 ON switch): -1; higher = weaker reporter binding; details: FMN input: 0 or 200 uM; Eterna round: R93 (includes R88 designs)
How it was run: as §1

Row | Sequence | apparent KD of MS2 coat protein (MS2 coat protein [1]) [nM] | apparent KD of MS2 coat protein (MS2 coat protein [2]) [nM]
1 | AAAAAACAUGAGGAUCACCCAUGUGAGGAUAUGUACGAAAUAAAAUAAAAAUAAAAGUACAGAAGGCACAAAAA [Mat - Exclusion 1 - Eli mod - D4] | 46.6 | 40.2
2 | AAAAAACAUGAGGAUCACCCAUGUGAGGAUAUUGGUAUUCAAGAAACCCUCUUAAUAGCGAGAAGGCGCAAAAA [Brourd 613 Mod 18 - Jieux - Exclusion 1] | 19.8 | 22.2
3 | AAAAAGAGAGGAUAUACAUGAGGAUCACCCAUGUGACAUUAAAUAAAUAAAAUAAAGUGUAGAAGGCUCAAAAA [65%, Moding Exclusion3-cac2, 23] | 136 | 38.1
4 | AAAAAGGCAGGAUAUACAUGAGGAUCACCCAUGUGAAAAAAAAAAAAAAAAAAAAAGUGUAGAAGGGUCAAAAA [Exclusion 3 - Omei 2] | 51.4 | 51.7
5 | AAAAAGGCAGGAUAUACGAGUCAAAGAAAAGACAAAAAGGGACAUGAGGAUCACCCAUGUAGAAGGGCCAAAAA [Fiskers exclusion D2 62% 4] | 193 | 51.6
6 | AAAAAGGGAGGAUAUACAGGAGGUAAGGAAAAAAAAAAAAAACAUGAGGAUCACCCAUGUAGAAGGCUUAAAAA [Ecls2-IV] | 22 | 30.3
7 | AAAAAGGGAGGAUAUACAUGAGGAUCACCCAUGUAAAAAAACGCGGGAGGGAGGGAAGGUAGAAGGCCCAAAAA [Excls3-IV] | 23 | 20.3
8 | AAAAAGGUAGGAUAUACAUGAGGAUCACCCAUGUGAAAGAAAAAUAAGAAAAGAAAGAGUAGAAGGACCAAAAA [JL JSci Mod] | 30.6 | 31
9 | AAAAAGUAAGGAUAUAGCAAAGGUCACGAAAGUGACAAAGGCUAGAAGGUACAUGAGGAUCACCCAUGUCCAAA [Fiskers Exclusion 4 D2 63% 3] | 17.7 | 19.9
10 | AAAAAGUCAGGAUAUACGUACAUGUCAAAAGACGUGAAGGGACAUGAGGAUCACCCAUGUAGAAGGGACAAGAA [JL Stem Breaker 21] | 49.6 | 106
11 | AAAAAGUCAGGAUAUAUAGGAAAAAUAAAAAAAAUAAAACUAUAGAAGGGACAUGAGGAUCACCCAUGUUAAAA [Ex 4 May 15] | 22.9 | 45.4
12 | AAAAAGUCAGGAUAUAUCAAAAAAAAAGAAAAAAAAAAAAGAUAGAAGGGACAUGAGGAUCACCCAUGUAAAAA [water's exclusion 4 last] | 34.2 | 74.3
13 | AAAAAGUCAGGAUAUGCGAAGGCGUCUGAUAGACGAGGCUAGCAGAAGGGACAUGAGGAUCACCCAUGUGAAGA [Mat - Exclusion 4 - Eli mod - D84] | 97.5 | 49.8
14 | AAAAAGUCAGGAUAUGUCAAAGGUCACGAAAGUGACAAAGGACAGAAGGGACAUGAGGAUCACCCAUGUAGGAA [Fiskers Exclusion 4D1 65% - Late G segment 2] | 68.5 | 55.5
15 | AAAAAGUCAGGAUAUGUGAAAAAAAAAAAAAAAAAAAAAAAACAGAAGGGACAUGAGGAUCACCCAUGUAAAAA [water's exclusion 4 2nd] | 46.4 | 60
16 | AAAAAGUCAGGAUAUUCGGAAGGGAAAGCGCAAACCCAACCGAAGAAGGGACAUGAGGAUCACCCAUGUGGAAA [Ecls4-III 65% - Late G segment 1] | 88.9 | 79
17 | AAAAAGUGAGGAUAUACGCUGAAGAGUAGACACAACCAGGCGUAGAAGGCACAUGAGGAUCACCCAUGUACAAA [Ex4 Malc#9] | 26.1 | 28.6
18 | AAAAAGUGAGGAUAUACGCUGAAGAGUAGACACAACCAGGCGUAGAAGGCACAUGAGGAUCACCCAUGUCCAAA [Ex4 Malc#10] | 41.2 | 21.2
19 | AAAAAGUGAGGAUAUAGCAAAGGUCACGAAAGUGACAAAGGCUAGAAGGCACAUGAGGAUCACCCAUGUCCAAA [Fiskers Exclusion 4 D2 63% 2] | 55.6 | 24.7
20 | AAAAAGUGAGGAUAUAUAUGAAACAAAAAGAAAAAAAAAAAACAUGAGGAUCACCCAUGUAGAAGGCGCAAAAA ['Exclusion 2' Lab] | 21.5 | 27.1
21 | AAAAAGUGAGGAUAUGCGAAGGCGUCUGAUAGACGAGGCUAGCAGAAGGCACAUGAGGAUCACCCAUGUGGGAG [Mat - Exclusion 4 - Eli mod - D93] | 148 | 71.5
